# Assay results published in US7867500B2, “Cofactor that modulates steroid receptor activities” (The United States of America as represented by the …, priority 2004, dated 2011).
# T1: thyroid (TR) (β) receptor (Homo sapiens, UniProt P10828)
# T1 construct: plus VP16 fused to the indicated full length receptors; expressed in transfected cells; host or cells: CV-1
# T1 sequence (P10828 1-461): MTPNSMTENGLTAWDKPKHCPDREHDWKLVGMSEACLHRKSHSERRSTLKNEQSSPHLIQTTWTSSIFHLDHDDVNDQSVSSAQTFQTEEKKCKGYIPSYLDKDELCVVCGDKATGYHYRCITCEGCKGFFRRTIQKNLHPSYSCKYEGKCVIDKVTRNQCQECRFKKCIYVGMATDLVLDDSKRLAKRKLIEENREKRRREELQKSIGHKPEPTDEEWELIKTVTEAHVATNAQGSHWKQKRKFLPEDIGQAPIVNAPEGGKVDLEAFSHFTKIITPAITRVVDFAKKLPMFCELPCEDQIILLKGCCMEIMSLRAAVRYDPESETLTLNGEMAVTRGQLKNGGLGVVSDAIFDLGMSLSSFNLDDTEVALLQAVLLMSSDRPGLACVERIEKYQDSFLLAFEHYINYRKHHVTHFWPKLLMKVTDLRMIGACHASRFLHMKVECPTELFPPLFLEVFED
# T2: glucocorticoid receptor (GR) (Rattus norvegicus, UniProt P06536)
# T2 sequence (P06536 1-795): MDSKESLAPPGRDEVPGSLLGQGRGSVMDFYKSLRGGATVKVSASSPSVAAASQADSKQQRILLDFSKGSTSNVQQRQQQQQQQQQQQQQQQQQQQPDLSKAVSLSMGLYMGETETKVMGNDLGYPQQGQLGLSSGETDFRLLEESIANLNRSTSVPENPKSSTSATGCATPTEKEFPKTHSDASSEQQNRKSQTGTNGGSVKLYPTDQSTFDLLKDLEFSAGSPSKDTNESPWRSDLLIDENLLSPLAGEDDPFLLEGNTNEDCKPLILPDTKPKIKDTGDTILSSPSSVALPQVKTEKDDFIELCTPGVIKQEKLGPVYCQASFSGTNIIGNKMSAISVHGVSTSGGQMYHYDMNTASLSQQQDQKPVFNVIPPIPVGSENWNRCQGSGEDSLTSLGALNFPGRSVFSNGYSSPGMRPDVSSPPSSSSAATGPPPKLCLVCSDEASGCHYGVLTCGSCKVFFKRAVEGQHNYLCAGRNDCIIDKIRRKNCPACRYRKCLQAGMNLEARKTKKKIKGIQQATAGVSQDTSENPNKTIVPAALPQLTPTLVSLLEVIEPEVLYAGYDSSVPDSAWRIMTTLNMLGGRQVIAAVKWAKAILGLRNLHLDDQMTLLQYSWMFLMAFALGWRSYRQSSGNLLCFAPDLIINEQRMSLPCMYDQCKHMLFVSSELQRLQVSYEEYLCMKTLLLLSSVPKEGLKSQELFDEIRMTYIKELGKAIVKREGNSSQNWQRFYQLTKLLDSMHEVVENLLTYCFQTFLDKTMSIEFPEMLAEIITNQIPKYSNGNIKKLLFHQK
# B1: STAMP834C: STAMP fragment amino acids 834-1277, receptor interaction domain (RID) (protein)
# chain: GDHPETIMEEVKIKPPKQQQTTEIHSDKLSRFTTSAEKEAKLVYSNSSSGPTATLQKIPNTHLSSVTTSDLSPGPCHHSSLSQIPSAIPSMPHQPTILLNTVSASASPCLHPGAQNIPSPTGLPRCRSGSHTIGPFSSFQSAAHIYSQKLSRPSSAKAGSCYLNKHHSGIAKTQKEGEDASLYSKRYNQSMVTAELQRLAEKQAARQYSPSSHINLLTQQVTNLNLATGIINRSSASAPPTLRPIISPSGPTWSTQSDPQAPENHSSSPGSRSLQTGGFAWEGEVENNVYSQATGVVPQHKYHPTAGSYQLQFALQQLEQQKLQSRQLLDQSRARHQAIFGSQTLPNSNLWTMNNGAGCRISSATASGQKPTTLPQKVVPPPSSCASLVPKPPPNHEQVLRRATSQKASKGSSAEGQLNGLQSSLNPAASVPITSSTDPAHTKI
# B2: STAMP: SRC-1 and TIF2 Associated Modulatory Protein, 1277 amino acid human polypeptide, expressed from transfected plasmid (protein)
# chain: MARDLEETASSSEDEEVISQEDHPCIMWTGGCRRIPVLVFHADAILTKDNNIRVIGERYHLSYKIVRTDSRLVRSILTAHGFHEVHPSSTDYNLMWTGSHLKPFLLRTLSEAQKVNHFPRSYELTRKDRLYKNIIRMQHTHGFKVFHILPQTFLLPAEYAEFCNSYSKDRGPWIVKPVASSRGRGVYLINNPNQISLEENILVSRYINNPLLIDDFKFDVRLYVLVTSYDPLVIYLYEEGLARFATVRYDQGAKNIRNQFMHLTNYSVNKKSGDYVSCDDPEVEDYGNKWSMSAMLRYLKQEGRDTTALMAHVEDLIIKTIISAELAIATACKTFVPHRSSCFELYGFDVLIDSTLKPWLLEVNLSPSLACDAPLDLKIKASMISDMFTVVGFVCQDPAQRASTRPIYPTFESSRRNPFQKPQRCRPLSASDAEMKNLVGSAREKGPGKLGGSVLGLSMEEIKVLRRVKEENDRRGGFIRIFPTSETWEIYGSYLEHKTSMNYMLATRLFQDRMTADGAPELKIESLNSKAKLHAALYERKLLSLEVRKRRRRSSRLRAMRPKYPVITQPAEMNVKTETESEEEEEVALDNEDEEQEASQEESAGFLRENQAKYTPSLTALVENTPKENSMKVREWNNKGGHCCKLETQELEPKFNLMQILQDNGNLSKMQARIAFSAYLQHVQIRLMKDSGGQTFSASWAAKEDEQMELVVRFLKRASNNLQHSLRMVLPSRRLALLERRRILAHQLGDFIIVYNKETEQMAEKKSKKKVEEEEEDGVNMENFQEFIRQASEAELEEVLTFYTQKNKSASVFLGTHSKISKNNNNYSDSGAKGDHPETIMEEVKIKPPKQQQTTEIHSDKLSRFTTSAEKEAKLVYSNSSSGPTATLQKIPNTHLSSVTTSDLSPGPCHHSSLSQIPSAIPSMPHQPTILLNTVSASASPCLHPGAQNIPSPTGLPRCRSGSHTIGPFSSFQSAAHIYSQKLSRPSSAKAGSCYLNKHHSGIAKTQKEGEDASLYSKRYNQSMVTAELQRLAEKQAARQYSPSSHINLLTQQVTNLNLATGIINRSSASAPPTLRPIISPSGPTWSTQSDPQAPENHSSSPGSRSLQTGGFAWEGEVENNVYSQATGVVPQHKYHPTAGSYQLQFALQQLEQQKLQSRQLLDQSRARHQAIFGSQTLPNSNLWTMNNGAGCRISSATASGQKPTTLPQKVVPPPSSCASLVPKPPPNHEQVLRRATSQKASKGSSAEGQLNGLQSSLNPAASVPITSSTDPAHTKI
# Tests used:
# [1] = biological target: T1, thyroid (TR) (β) receptor; experiment: Mammalian two-hybrid assay with VP16 full length receptor: TRβ; assay type: cell-based; conditions: 0.1 μM triiodothyronine
# Method: FIG. 6C1-3 illustrate the association of STAMP with assorted steroid/nuclear receptors, including glucocorticoid receptors (GRs), progesterone receptors (PRs), androgen receptors (ARs), estrogen receptors (ER α or β), PPARγ2 receptors, thyroid receptor beta (TR), and retinoid (α) receptors (RAR α or RXR α). Triplicate samples of CV-1 cells were transfected (as described for FIG. 6B) with GAL, or GAL fused to TIF2.4 or STAMP834C, plus VP16 fused to the indicated full length receptors and incubated with the appropriate steroid (1 μM Dex, 20 nM R5020, 1 nM R1881, 0.1 μM triiodothyronine, or 1 μM estradiol, roziglitazone, or 9-cis-retinoic acid). The average relative luciferase activities of 2-3 experiments±S.E.M. were then plotted. FIG. 6C1 illustrates the effects of STAMP association upon GR, PR and AR induced expression. FIG. 6C2 illustrates the effects of STAMP association upon ERα, ERβ and PPARγ2 induced expression. FIG. 6C3 illustrates the effects of STAMP association upon TR, RARα and RXRα induced expression.
# These assays were conducted as described (He et al., 2002). […]
# [2] = biological target: T2, glucocorticoid receptor (GR); experiment: GR-mediated induction of GREtkLUC reporter, transient transfection of CV-1 cells
# Method: Triplicate samples of CV-1 cells were transiently transfected with GR (6 ng)±TIF2 (20 ng)±STAMP (160 ng) plasmids, GREtkLUC reporter, and Renilla control plasmid. […] FIG. 4B illustrates the fold changes in GR induction parameters by STAMP and TIF2. […] The fold-increase in each parameter was determined as follows: for EC50s, fold increase=[EC50]GR/[EC50]GR+factor; for partial agonist activity and fold Dex induction, fold increase=activityGR+factor/activityGR). The average fold increases were then plotted±S.E.M (n=4).
# CV-1 cells were transiently transfected with GR (6 ng)±TIF2 (20 ng)±STAMP (160 ng) plasmids, GREtkLUC reporter, and Renilla control plasmid, and induced with ethanol± the indicated concentrations of Dex.
# Tests were run to determine whether exogenous STAMP can modulate the EC50 of glucocorticoids and the partial agonist activity of antiglucocorticoids in the transient transfection assays where GR induced gene expression from a GREtkLUC reporter.
Molecule,interaction with thyroid receptor β [1],"increase in the partial agonist activity of the antagonist Dex-Mes ([2]; STAMP alone, no exogenous coactivators, low GR, 1 μM Dex-Mes, S.E.M., n=6, P=0.023) [fold]","shift in the dose-response curve to lower steroid concentrations ([2]; STAMP alone, no exogenous coactivators, low GR, Dex, S.E.M., n=6, P=0.0074) [fold]","fold induction by 1 μM Dex, fold increase ([2]; STAMP alone, S.E.M., n=6) [fold]","total amount of gene product induced by 1 μM Dex, fold increase ([2]; STAMP alone, S.E.M., n=6) [fold]",fold induction (above basal activity) with 1 μM Dex ([2]; both with and without added TIF2 (FIG. 4B))
B1,lack of interaction,,,,,
B2,,1.16±0.05,1.54±0.12,0.93±0.08,1.26±0.05,increases the fold induction
